Experimental data as given in patent US20160185832A1.

Assays:
[1] = biological target: microtubule network of cultured human cells (hTERT-RPE1, 293T) (human) (UniProt P68363); assay: cell-based or functional assay
[2] = biological target: pure, pre-polymerized, taxol-stabilized microtubules of bovine tubulin (Cytoskeleton) (bovine) (UniProt P81947); assay: in vitro microtubule co-sedimentation, percent of construct in the microtubule pellet (FIG. 4D)
[3] = biological target: microtubules polymerized in mouse brain homogenate (mouse) (UniProt P05213); assay: microtubule co-sedimentation from mouse brain homogenate, western blot (FIG. 6F)
microtubules polymerized in mouse brain homogenate (mouse), sequence (P05213 whole entry, chain 1 of 2): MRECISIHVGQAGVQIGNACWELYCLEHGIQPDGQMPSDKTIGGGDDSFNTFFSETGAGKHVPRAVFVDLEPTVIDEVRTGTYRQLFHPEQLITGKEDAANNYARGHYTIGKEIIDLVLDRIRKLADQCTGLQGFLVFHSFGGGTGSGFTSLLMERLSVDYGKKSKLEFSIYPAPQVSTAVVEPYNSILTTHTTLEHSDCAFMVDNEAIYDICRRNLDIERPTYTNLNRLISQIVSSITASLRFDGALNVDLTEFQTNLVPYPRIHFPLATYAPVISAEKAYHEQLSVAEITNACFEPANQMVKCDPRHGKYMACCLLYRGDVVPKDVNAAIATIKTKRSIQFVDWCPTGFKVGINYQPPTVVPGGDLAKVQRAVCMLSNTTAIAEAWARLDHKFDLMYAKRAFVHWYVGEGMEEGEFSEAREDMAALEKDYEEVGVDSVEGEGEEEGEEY
microtubules polymerized in mouse brain homogenate (mouse), sequence (Q9CWF2 whole entry, chain 2 of 2, further chain): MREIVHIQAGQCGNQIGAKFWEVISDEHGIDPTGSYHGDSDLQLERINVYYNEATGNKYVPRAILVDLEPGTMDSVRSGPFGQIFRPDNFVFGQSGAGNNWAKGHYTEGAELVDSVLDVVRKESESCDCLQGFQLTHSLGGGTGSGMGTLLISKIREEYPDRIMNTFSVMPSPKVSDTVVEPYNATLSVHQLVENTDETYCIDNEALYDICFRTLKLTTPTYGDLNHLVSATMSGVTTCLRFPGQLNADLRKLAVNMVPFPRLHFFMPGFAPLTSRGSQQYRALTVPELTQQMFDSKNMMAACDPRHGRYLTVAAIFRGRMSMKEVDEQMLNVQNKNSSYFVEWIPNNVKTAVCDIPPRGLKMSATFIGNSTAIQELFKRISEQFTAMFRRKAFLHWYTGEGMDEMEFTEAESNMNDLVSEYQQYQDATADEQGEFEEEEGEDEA

microtubule network of cultured human cells (hTERT-RPE1, 293T) (human), sequence (P68363 whole entry, chain 1 of 2): as the sequence (P05213 whole entry, chain 1 of 2) above
microtubule network of cultured human cells (hTERT-RPE1, 293T) (human), sequence (P07437 whole entry, chain 2 of 2, further chain): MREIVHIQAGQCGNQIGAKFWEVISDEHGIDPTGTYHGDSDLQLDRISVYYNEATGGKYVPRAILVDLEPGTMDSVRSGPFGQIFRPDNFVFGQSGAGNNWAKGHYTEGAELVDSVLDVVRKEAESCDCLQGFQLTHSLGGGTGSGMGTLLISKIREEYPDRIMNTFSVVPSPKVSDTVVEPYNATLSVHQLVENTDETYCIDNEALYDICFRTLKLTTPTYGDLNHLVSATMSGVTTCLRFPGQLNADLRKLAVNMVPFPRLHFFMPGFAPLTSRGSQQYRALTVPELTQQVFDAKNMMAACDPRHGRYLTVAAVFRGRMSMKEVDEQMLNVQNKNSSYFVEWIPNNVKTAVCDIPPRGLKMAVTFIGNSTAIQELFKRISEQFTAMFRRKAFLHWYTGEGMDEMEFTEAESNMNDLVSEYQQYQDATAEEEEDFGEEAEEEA
pure, pre-polymerized, taxol-stabilized microtubules of bovine tubulin (Cytoskeleton) (bovine), sequence (P81947 whole entry, chain 1 of 2): as the sequence (P05213 whole entry, chain 1 of 2) above
pure, pre-polymerized, taxol-stabilized microtubules of bovine tubulin (Cytoskeleton) (bovine), sequence (Q6B856 whole entry, chain 2 of 2, further chain): as the sequence (Q9CWF2 whole entry, chain 2 of 2, further chain) above

Substance | percent of transfected cells with increased microtubule acetylation and bundling [1] [%] | percent of transfected hTERT-RPE1 cells with a fibrillar localization pattern [1] [%] | percent associated with microtubules [2] [%] | percent associated with microtubules [3] [%]
GFP fusion of full length human CEP290 (aa 1-2479), O15078 1-2479 | 40 | 10 | < 50 | –
full length wild type (WT) mouse Cep290 from mouse brain homogenate, Q6A078 1-2472 | – | – | – | 60
